Laboratory results published in patent publication US20180171001A1.
Substitutions are numbered along the chain they refer to.

Key:
Assay in all cases: cell-based or functional assay
[1] = molecular target: Env of HIV-1 strain ZM53M.PB12 (HIV-1)
[2] = molecular target: Env of HIV-1 strain 3016.v5.c45 (HIV-1)
[3] = molecular target: Env of HIV-1 strain 250-4 (HIV-1)
[4] = molecular target: Env of HIV-1 strain X1254_c3 (HIV-1)
[5] = molecular target: Env of HIV-1 strain R1166.c1 (HIV-1)
[6] = molecular target: Tier 2 15 virus panel
[7] = molecular target: Env of HIV-1 strain 3415.v1.c1 (HIV-1)
[8] = molecular target: Env of HIV-1 strain REJO4541.67 (HIV-1)
[9] = molecular target: Env of HIV-1 strain PVO.4 (HIV-1)
[10] = molecular target: Env of HIV-1 strain 3365.v2.c20 (HIV-1)
[11] = molecular target: Env of HIV-1 strain ZM109F.PB4 (HIV-1)
[12] = molecular target: Env of HIV-1 strain H086.8 (HIV-1)
[13] = molecular target: Env of HIV-1 strain 251-18 (HIV-1)
[14] = molecular target: Env of HIV-1 strain YU2.DG (HIV-1)
[15] = molecular target: Env of HIV-1 strain 231965.c1 (HIV-1)
[16] = molecular target: Env of MuLV
[17] = molecular target: Env of HIV-1 strain Du172.17 (HIV-1)

B1: γ52κ5 (antibody, V domains shown)
VH: QIHLVQSGTEVKKPGSSVTVSCKAYGVNTFGLYAVNWVRQAPGQSLEYIGQIWRWKSSASHHFRGRVLISAVDLTGSSPPISSLEIKNLTSDDTAVYFCTTTSTYDRWSGLHHDGVMAFSSWGQGTLISVSA
VL: DIQMTQSPSTLSASTGDTVRISCRASQSITGNWVAWYQQRPGKAPRLLIYRGAALLGGVPSRFRGSAAGTDFTLTIGNLQAEDFGTFYCQQYDTYPGTFGQGTKVEVKR
B1 gave a neutralization IC50 [1] of 3.13 µg/mL, a neutralization IC50 [2] of 0.017 µg/mL and a neutralization IC50 [3] of over 15 µg/mL. For the same binder, the neutralization IC50 [4] was 0.504 µg/mL, the neutralization IC50 [5] was 0.319 µg/mL and the mean neutralization IC50 [6] was 0.45 µg/mL. It also gave a potency against 8ANC195 [6] of 5 fold, a neutralization IC50 [7] of 0.12 µg/mL and a neutralization IC50 [8] of 0.035 µg/mL. For the same binder, the neutralization IC50 [9] was 0.019 µg/mL, the neutralization IC50 [10] was over 15 µg/mL and the neutralization IC50 [11] was over 15 µg/mL. It also gave a neutralization IC50 [12] of 0.175 µg/mL, a neutralization IC50 [13] of 0.048 µg/mL and a neutralization IC50 [14] of 0.065 µg/mL. For the same binder, the neutralization IC50 [15] was 0.094 µg/mL.

B2: 8ANC195 IgG (antibody, V domains shown)
VH: B1 VH with R107K
VL: DIQMTQSPSTLSASIGDTVRISCRASQSITGNWVAWYQQRPGKAPRLLIYRGAALLGGVPSRFSGSAAGTDFTLTIGNLQAEDFGTFYCQQYDTYPGTFGQGTKVEV
Binder B2 has a neutralization IC50 [1] of 9.63 µg/mL, a neutralization IC50 [2] of 0.195 µg/mL and a neutralization IC50 [3] of over 50 µg/mL. For the same binder, the neutralization IC50 [4] was 1.52 µg/mL, the neutralization IC50 [16] was over 23 µg/mL and the neutralization IC50 [5] was 0.986 µg/mL. The mean neutralization IC50 [6] was 2.3 µg/mL, the neutralization IC50 [17] was 10.8 µg/mL and the neutralization IC50 [7] was 2.4 µg/mL. It also gave a neutralization IC50 [8] of 0.08 µg/mL, a neutralization IC50 [9] of 0.52 µg/mL and a neutralization IC50 [10] of over 30 µg/mL. It also gave a neutralization IC50 [11] of over 30 µg/mL, a neutralization IC50 [12] of 0.095 µg/mL and a neutralization IC50 [13] of 0.284 µg/mL. For the same binder, the neutralization IC50 [14] was 0.79 µg/mL and the neutralization IC50 [15] was 0.514 µg/mL.
